Assays:
[1] = target: glucagon-like peptide 1 receptor (GLP1R) (Homo sapiens, UniProt P43220); experiment: Proximity based reaction assay, GLP1R-TEV cleavage site-transcription factor cell line, luciferase reporter; details: for S/N ratio and noise with different TEV cleavage sites: GLP1R (1-426) constructions, Exendin-4 ligand, 1-3 days post infection
[2] = target: T1, Thrombopoietin receptor (TpoR) (Homo sapiens, UniProt P40238); experiment: Proximity based reaction assay, TpoR-TEV cleavage site-transcription factor cell line, luciferase reporter
T1 construct: The coding region of TpoR or GLP1R was followed by the TEV protease cleavage site and the GAL4-VP16 transcription factor; expressed in transfected cells
T1 sequence (P40238 26-635): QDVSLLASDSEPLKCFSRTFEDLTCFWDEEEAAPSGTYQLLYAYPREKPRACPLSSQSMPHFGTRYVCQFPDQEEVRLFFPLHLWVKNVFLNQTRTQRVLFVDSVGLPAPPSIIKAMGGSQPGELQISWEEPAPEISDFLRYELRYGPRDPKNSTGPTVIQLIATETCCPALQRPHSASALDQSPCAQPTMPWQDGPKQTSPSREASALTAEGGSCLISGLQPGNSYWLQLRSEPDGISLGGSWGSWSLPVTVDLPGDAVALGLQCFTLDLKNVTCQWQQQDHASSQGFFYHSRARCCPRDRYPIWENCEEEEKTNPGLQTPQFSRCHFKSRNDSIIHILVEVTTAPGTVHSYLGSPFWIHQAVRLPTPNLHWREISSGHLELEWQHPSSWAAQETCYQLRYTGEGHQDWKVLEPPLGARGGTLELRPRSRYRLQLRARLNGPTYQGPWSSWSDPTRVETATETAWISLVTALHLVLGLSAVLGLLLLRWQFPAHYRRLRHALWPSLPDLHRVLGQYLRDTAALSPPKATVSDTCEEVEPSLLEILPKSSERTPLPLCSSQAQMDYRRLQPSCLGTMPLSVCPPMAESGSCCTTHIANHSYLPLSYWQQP
From the text: FIG. 2. Proximity based identification of Thrombopoietin receptor (TpoR) activation. Stable cell lines harboring the luciferase reporter gene under control of UAS and TpoR-TEV cleavage site-transcription factor were established. Cells were transduced with lentivirus encoding Thrombopoietin (TPO) or the TpoR binding antibodies 3D9 or 14F12. Genes encoding different linkers including 3, 5, 6, 8, or 10 copies of (GGGGS) (SEQ ID NO:1) or a human IgG1 Fc were placed between the ligand and PDGFR trans-membrane domain. Luciferase activities were measured 2 days post infection. The cell line harboring GLP1R-TEV cleavage site-Transcription factor was used as negative cell control. The reaction was controlled by measuring the luminescence signals from control lentivirus carrying irrelevant antibodies with the same linker type and length.
The stable cell line harboring both the UAS-reporter gene and receptor-cleavage site-transcription factor was plated in a 96 well plate at 20000 cells per well. Cells were infected by lentivirus carrying the ligand-TM-TEV protease at MOI equal to 1. Cells were cultured for 24-72 h before measuring the reporter gene activity. Luciferase activity was determined by using a luciferase assay system (Promega) while expression of tdTomato was observed by fluorescent microscopy.
A similarly constructed irrelevant antibody was used as a negative control. […]

[3] = test system: glucagon-like peptide 1 receptor (GLP1R); experiment: Proximity based reaction assay, GLP1R-TEV cleavage site-transcription factor cell line, luciferase reporter; details: orthogonal control for non-specific interactions; membrane displayed ligand
CXCR4 = CXCR4 (Homo sapiens, UniProt P61073); experiment: Proximity based reaction assay with irrelevant receptor CXCR4 replacing GLP1R; assay type: cell-based; details: irrelevant G protein-coupled receptor control
CXCR4, sequence (P61073 whole entry, species assumed): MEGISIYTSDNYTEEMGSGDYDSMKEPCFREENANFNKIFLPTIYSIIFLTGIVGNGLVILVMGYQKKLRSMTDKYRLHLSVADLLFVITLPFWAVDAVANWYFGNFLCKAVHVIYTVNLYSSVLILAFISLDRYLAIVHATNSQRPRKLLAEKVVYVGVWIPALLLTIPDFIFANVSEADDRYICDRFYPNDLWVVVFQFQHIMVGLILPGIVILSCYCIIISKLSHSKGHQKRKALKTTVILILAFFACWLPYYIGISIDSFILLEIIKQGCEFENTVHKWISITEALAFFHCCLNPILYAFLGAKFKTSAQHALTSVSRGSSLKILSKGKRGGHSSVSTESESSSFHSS

GLP1R = target: T2, GLP1R (Homo sapiens, UniProt P43220); experiment: Proximity based reaction assay, GLP1R constructions, tdTomato reporter, fluorescent microscopy; assay type: cell-based
T2 construct: Four TEV cleavage sites that are cleaved with varying efficiency were used for the GLP1R (1-426) constructions; expressed in transfected cells
T2 sequence (P43220 24-426, species assumed): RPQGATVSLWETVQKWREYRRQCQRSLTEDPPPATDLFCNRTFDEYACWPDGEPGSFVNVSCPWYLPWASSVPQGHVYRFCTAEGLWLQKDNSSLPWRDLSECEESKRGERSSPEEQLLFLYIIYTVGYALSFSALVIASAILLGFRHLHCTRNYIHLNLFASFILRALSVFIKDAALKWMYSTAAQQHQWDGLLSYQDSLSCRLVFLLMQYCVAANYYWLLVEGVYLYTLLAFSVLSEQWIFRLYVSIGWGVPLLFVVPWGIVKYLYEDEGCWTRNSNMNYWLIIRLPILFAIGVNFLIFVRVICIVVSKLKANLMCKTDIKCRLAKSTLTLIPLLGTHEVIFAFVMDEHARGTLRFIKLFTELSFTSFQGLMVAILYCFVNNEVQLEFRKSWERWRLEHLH
From the text: Stable cell lines containing the tdTomato reporter gene under control of UAS and GLP1R constructions with different TEV cleavage sites were studied.

glucagon-like peptide 1 receptor (GLP1R) (Homo sapiens, UniProt P43220), sequence (P43220 24-426): as the sequence (P43220 24-426, species assumed) above

For ENLFFQS (SEQ ID NO:7) [TEV 4], the “S/N ratio and noise with different TEV cleavage sites” value [1] was “very high level of noise”.

Thrombopoietin [TPO] was tested, and the “transcription factor mediated signal relative to the irrelevant antibody control” value ([2]; ligand displayed at plasma membrane via PDGFR TM-TEV protease, lentivirus, luciferase 2 days post infection) was “increased the transcription factor mediated signal”, the “effect of linker length between ligand and TM domain on proximity-based signal” value ([2]; tandem repeats of GGGGS linker) was “generated similar signals” and the “signal in cells bearing the wrong receptor (GLP1R-transcription factor fusion cell line)” value [3] was “did not increase the signal”.

For Exendin-4, the “response when CXCR4 replaced the GLP1R” value (CXCR4) was “no response”.

For ENLYYQS (SEQ ID NO:6) [TEV 3], the “background with different TEV cleavage sites, tdTomato reporter” value (GLP1R) was “much lower background”.

In the case of Vc1.1, the “signal to noise (S/N) ratio, non-specific peptide control” value [1] is reported as “even lower S/N”.

ENLYFQS (SEQ ID NO:4) [TEV1] was tested, and the “S/N ratio and noise with different TEV cleavage sites” value [1] was “very high level of noise”.

In the case of ENFYFQS (SEQ ID NO:5) [TEV 2], the “S/N ratio and noise with different TEV cleavage sites” value [1] is reported as “highest S/N ratio” and the “background with different TEV cleavage sites, tdTomato reporter” value (GLP1R) is reported as “much lower background”.

Reference: US10655124B2, “Proximity based methods for selection of binding partners” (THE SCRIPPS RESEARCH INSTITUTE, priority 2014, dated 2020)
